For 3 substances, Ka results are on record in patent publication US7427404.

This test concerns the target monoclonal anti-S1 antibody 1B7. Briefly: competition RIA: 1B7 coated on plate, 125I-PT displaced by unlabelled toxin.

For the substance “PT-26I/129G (from UniProt P04978 28-226; P04979 29-227; P0A3R5 43-152; P04981 35-133)”, the Ka came to 5.5e+07 M⁻¹.
“PT-129G (from UniProt P04978 28-226; P04979 29-227; P0A3R5 43-152; P04981 35-133)” displayed a Ka of 2.1e+08 M⁻¹.
The value for “PT-13L/129G (from UniProt P04978 28-226; P04979 29-227; P0A3R5 43-152; P04981 35-133)” was 1.3e+08 M⁻¹.
